Measured values taken from paper PMC4945075.

Target: T1, His-tagged cyt-SpoIIE (cytosolic part of SpoIIE), fluorescently labeled (B. subtilis)
T1 sequence (P37475 whole entry, looked up): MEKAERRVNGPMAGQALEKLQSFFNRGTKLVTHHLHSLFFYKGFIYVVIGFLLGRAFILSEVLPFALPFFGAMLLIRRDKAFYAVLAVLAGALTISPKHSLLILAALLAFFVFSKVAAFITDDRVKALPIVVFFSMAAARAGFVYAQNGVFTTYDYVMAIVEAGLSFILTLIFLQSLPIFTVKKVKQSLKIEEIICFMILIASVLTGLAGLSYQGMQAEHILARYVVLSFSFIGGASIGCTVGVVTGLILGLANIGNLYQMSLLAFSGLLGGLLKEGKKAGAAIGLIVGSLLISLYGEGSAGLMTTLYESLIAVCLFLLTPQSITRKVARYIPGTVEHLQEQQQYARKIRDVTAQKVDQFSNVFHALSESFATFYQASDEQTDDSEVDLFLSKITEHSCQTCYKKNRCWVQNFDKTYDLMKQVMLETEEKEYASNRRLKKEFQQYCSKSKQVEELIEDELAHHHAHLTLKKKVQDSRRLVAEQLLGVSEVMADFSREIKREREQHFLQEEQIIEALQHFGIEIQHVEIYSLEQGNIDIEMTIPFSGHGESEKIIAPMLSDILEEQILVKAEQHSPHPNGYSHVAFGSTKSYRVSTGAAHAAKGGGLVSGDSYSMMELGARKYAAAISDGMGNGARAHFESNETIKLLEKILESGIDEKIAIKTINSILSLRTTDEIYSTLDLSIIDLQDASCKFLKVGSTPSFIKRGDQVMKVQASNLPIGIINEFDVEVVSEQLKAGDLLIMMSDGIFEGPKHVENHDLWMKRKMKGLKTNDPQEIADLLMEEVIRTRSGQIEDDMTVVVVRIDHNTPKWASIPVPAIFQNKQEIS
Experiment: MST; labeled cyt-SpoIIE constant at 34 μM, unlabeled cyt-RodZ titrated 6.7 nM to 221 μM; 25 mM Tris-HCl pH 8.0, 150 mM NaCl, 40 mM imidazole, 5% glycerol, 0.05% Tween-20; Monolith NT.115; 'preliminary Kd'

B1: His6-tagged cyt-RodZ (cytosolic part of RodZ) (domain or fragment)
chain: MFVVTELGIRLKEAREEKAMSLDDLQAATKIQKRYLTALEEGNYDIIPGKFYVRAFIKQYAEAVGLDADQLFEEHKKDIPNTYHDDVSEKI
Kd: 10 µM
